Results published in patent publication US20100215684A1 (UNIVERSITY OF QUEENSLAND, published 2010).

Biological target: T1, Human fibrinogen (Sigma), biotinylated (human, UniProt P02671 20-629; P02675 31-491; P02679 27-437)
T1 construct: also called biotinylated fibrinogen
T1 sequence 1: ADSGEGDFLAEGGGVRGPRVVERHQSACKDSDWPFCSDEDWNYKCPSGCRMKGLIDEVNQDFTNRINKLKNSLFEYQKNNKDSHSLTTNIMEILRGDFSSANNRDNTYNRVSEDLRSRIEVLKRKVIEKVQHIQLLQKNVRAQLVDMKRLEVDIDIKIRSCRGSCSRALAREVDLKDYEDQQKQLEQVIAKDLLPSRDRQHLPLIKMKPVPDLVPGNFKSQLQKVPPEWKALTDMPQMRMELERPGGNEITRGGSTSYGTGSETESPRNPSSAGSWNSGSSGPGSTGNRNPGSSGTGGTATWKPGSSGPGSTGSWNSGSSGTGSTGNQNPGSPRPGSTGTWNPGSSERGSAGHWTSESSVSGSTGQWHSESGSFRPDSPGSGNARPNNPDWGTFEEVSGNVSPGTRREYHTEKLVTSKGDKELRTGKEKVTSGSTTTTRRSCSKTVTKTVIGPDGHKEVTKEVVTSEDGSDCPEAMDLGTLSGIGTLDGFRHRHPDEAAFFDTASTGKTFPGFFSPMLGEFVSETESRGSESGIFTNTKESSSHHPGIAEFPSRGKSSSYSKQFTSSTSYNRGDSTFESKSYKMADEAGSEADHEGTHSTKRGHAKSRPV
T1 sequence 2: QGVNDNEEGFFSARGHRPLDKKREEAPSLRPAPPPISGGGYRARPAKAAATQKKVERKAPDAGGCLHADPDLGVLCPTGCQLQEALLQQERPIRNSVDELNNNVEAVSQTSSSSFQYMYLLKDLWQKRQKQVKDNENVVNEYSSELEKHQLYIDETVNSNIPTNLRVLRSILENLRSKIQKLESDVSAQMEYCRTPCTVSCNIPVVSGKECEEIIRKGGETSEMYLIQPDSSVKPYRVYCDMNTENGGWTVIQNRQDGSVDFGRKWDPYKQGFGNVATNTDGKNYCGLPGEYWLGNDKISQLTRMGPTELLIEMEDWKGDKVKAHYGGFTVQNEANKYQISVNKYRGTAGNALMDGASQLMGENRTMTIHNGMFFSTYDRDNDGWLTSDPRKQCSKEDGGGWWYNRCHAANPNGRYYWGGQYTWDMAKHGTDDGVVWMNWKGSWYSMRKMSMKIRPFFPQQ
T1 sequence 3: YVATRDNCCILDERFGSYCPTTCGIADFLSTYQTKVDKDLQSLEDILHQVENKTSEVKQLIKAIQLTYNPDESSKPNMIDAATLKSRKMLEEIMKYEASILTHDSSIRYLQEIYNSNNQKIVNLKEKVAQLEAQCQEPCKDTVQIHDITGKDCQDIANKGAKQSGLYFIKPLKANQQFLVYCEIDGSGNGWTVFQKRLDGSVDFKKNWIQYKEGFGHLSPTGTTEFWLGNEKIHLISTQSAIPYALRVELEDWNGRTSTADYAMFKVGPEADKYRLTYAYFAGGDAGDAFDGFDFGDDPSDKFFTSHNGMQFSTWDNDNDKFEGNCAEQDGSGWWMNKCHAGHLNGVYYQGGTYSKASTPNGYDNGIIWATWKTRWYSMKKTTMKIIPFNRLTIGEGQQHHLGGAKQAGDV
Test: fibrinogen binding of expressed peptides (data not shown)

B1: S. iniae strain QMA136 M protein C-terminal amino acid sequence (309 amino acid peptide expressed from isolate QMA0136) (other)
chain: MAEIQEEANKKIAAVQTELENIDSENQSLSTANEQLKADLEQAARELDTLQSSYYTVENEKAELQKQLAEKDAKIAELEANNTELTATVADLTKALEAAKKEAEEKPALKAKVAELEKALAEAKGLGTKVAELEKDLEKAQAEAKDLETKLAETKAELEKVQAEKAELEATIEKMKKEHAEELDKLNALLADKEKLVEALNKEIEALKKDFDEKSNHSAQEKAKFQEELERLKKELAAKINMPMGNTKGMANAAGNAQTPANNGQNNAVKNQLPSTGDKAGNPFFTASAIAVMVGAGTLAYGRKRKEEE
notes: The expression construct is not described; also called QMA136 C-terminal fragment
binding result: no binding
